Data: patent publication US20120005127A1

Biological target: IL-1 receptor (human) (UniProt P14778)
Experiment: cell-based or functional assay

Chain of UniProt P14778 (P14778 18-569): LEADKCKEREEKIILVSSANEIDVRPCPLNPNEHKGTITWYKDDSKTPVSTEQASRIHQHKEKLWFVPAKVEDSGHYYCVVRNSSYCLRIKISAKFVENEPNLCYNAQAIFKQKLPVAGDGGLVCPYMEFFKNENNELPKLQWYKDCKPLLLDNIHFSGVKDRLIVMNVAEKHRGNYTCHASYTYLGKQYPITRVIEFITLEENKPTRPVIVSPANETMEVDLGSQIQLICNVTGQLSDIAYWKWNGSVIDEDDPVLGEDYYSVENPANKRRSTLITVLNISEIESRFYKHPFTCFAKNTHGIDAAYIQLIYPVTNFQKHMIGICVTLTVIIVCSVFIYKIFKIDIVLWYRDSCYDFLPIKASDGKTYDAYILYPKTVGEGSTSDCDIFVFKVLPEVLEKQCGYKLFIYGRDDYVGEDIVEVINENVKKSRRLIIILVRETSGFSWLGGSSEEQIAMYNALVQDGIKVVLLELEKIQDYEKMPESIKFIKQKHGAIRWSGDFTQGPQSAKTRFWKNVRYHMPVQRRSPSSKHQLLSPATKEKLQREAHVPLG

IC50 (pM): inhibition of IL-1β induced production of IL-8 in human whole blood: 53.4 pM
Substance: Kineret® (anakinra) (from UniProt P18510 26-177) (ligand)
